Test results from PMC11697113, “The Hsc70 system maintains the synaptic SNARE protein SNAP-25 in an assembly-competent state and delays its aggregation [drawing 1]” (The Journal of Biological Chemistry, 2024).

Key:
[1] = target: T1, Hsc70 (Homo sapiens, UniProt P11142); experiment: ATPase activity of Hsc70 (malachite green); format: biochemical; settings: for ATPase activity of co-chaperone alone: baseline, protein alone without Hsc70
T1 construct: 6X His-tag (TEV-cleavable) (cleaved yes); made in house; host or cells: E. coli Rosetta (DE3)
T1 sequence (P11142 whole entry): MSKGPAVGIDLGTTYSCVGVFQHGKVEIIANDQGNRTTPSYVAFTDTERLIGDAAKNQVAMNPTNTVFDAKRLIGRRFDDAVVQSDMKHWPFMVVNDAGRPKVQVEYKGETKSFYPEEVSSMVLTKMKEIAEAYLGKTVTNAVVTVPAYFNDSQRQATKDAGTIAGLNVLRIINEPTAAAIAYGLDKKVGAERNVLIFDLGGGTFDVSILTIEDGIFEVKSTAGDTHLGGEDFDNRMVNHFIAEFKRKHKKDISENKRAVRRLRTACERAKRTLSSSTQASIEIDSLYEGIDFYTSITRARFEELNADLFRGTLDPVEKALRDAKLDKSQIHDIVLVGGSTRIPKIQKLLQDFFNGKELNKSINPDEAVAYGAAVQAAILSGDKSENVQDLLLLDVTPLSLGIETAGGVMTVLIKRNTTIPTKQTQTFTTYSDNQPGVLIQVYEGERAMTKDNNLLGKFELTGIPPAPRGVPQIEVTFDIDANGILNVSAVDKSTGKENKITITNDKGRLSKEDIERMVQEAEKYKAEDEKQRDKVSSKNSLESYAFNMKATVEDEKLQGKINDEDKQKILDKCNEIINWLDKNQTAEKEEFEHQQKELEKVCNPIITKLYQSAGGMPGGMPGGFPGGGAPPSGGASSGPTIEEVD
Description: Hsp70s consist of an nucleotide-binding domain (NBD) and a substrate-binding domain (SBD). Hsc70 works using an allosteric mechanism whereby substrate binding at the SBD stimulates the ATP hydrolysis rate at the nucleotide-binding domain. The basal ATPase rate of Hsp70 is low, usually about 0.05 ± 0.009 mol Pi/mol protein, and increases when it is stimulated by binding of a peptide to the canonical site in the SBD. We measured the ability of SNAP-25 peptides SNNP and SNCP to stimulate the ATPase rate of Hsc70 (Fig. 5A). SNNP and SNCP binding cause a 1.5-fold increase of the Hsc70 ATPase rate over basal (observed rates upon addition of SNNP and SNCP were 0.089 ± 0.008 and 0.080 ± 0.005, respectively). In order to confirm that peptides are indeed binding at the canonical binding site of Hsc70, we used the V438F mutant that blocks the binding site ([37]). […] The addition of CSPαJ stimulates the ATPase activity of Hsc70 ∼4-fold with and without peptides.
Figure 5 SNN and SNC peptides interact with the canonical substrate-binding site of Hsc70.A, ATPase activity of Hsc70 (2 μM) in the absence (gray) and presence of 200 μM SNNP (orange) and SNCP (green) peptides. Error bars represent the SDs from three independent experiments. B, binding of SNAP-25 (black), SNNP (orange), LoopP (blue), and SNCP (green) peptides to Hsc70 followed by competition for FITC-p5 peptide using fluorescence anisotropy. Increasing concentrations of the competitors were added to a complex of Hsc70 (5 μM) and FITC-p5 peptide (50 nM). Error bars represent SDs from three independent experiments. C, structure of the canonical substrate-binding site of human HspA1 (PDB 4po2) illustrating the location of Hsc70 residues Ile 403 and Ile 440 in red and green spheres, respectively (N.B., Hsc70 and HspA1 share […] sequence identity). The SBD is shown in gray, bound substrate in cyan sticks, and the side chain of the residue occupying the 0th position in the chaperone (“anchor residue”) in orange ball and sticks. For better visualization of the substrate-binding site, residues 512 to 613, 405 to 408, and 431 were removed in this illustration of the structure. […]
We performed ATPase assays to observe the activity of Hsc70 in the presence of SNAP25 peptides. […] Absorbance readings were taken at 620 nm using a BioTek plate reader. […]
(C) ATPase activity of Hsc70 (at 2 μM) in the absence (grey) and presence of 200 μM SNNP (orange) and L(Loop)-SNCP (green) peptides, and in the absence and presence of CSPa-J and CSPa-J/Apg2. The statistical significance was calculated using one-way ANOVA test with Sidak’s multiple comparison and the Hsc70 ATPase activity […]

[2] = SNAP-25 aggregation kinetics by optical density; format: biochemical; settings: without SNAP-25, 37 °C
Experimental: (§1) To test our hypothesis that Hsc70 inhibits SNAP-25 aggregation, we monitored the aggregation kinetics of recombinantly expressed SNAP-25 in the absence and presence of Hsc70 by following optical density at 360 nm (Fig. 2). […] This lag time was elongated to ∼65 h in the presence of Hsc70. In neurons, Hsc70 works in collaboration with its co-chaperone CSPα. […] (Fig. S2A). Apg2 is a member of the Hsp110 family, which is known to suppress protein aggregation ([36]). […] (Fig. S2B).
(§2) Figure 2 Hsc70 delays the aggregation of SNAP-25. Aggregation kinetics of SNAP-25 (50 μM) at 37 °C. Optical density of SNAP-25 was recorded at 360 nm in the absence (black) and in the presence of Hsc70 (5 μM, red), and Hsc70+CSPαJ (5 μM each, blue).
(§3) Aggregation of SNAP-25 at 50 μM was followed by measuring the A360 in a 96-well plate using a BioTek plate reader (BioTek), at 37 °C with shaking at 300 rpm, in the absence and presence of Hsc70 and CSPαJ at 5 μM each, and Apg2 at 0.5 μM. The aggregation buffer included 20 mM phosphate buffer pH 7.4, 100 μM MgCl2, and 100 mM KCl, and an ATP-experiment was carried out using regeneration system (5 mM 2-phosphoenolpyruvate, 0.05 mg/ml pyruvate kinase, and 5 mM ATP), as described previously ([51]).
(§4) Figure SI 2. Apg2 enhances the effect of Hsc70 on SNAP-25. (A) Aggregation kinetics of SNAP-25 (50 μM) at 37 °C. OD600 of SNAP-25 was recorded in the absence (black) and in the presence of Hsc70, Hsc70+CSPa-J (blue) and Hsc70+CSPa-J+Apg2 (turquoise). […]
(§5) concentrations are SNAP-25 (50 μM), Hsc70 (5 μM), CSPa-J (5 μM) and Apg2 (0.5 μM).
(§6) (B) Aggregation kinetics of SNAP-25 (50 μM) at 37 °C. OD600 of SNAP-25 was recorded in the absence (black) and in the presence of Apg2 (blue). […]

[3] = test system: SNAP-25; experiment: SNAP-25 aggregation kinetics by optical density; format: biochemical; settings: SNAP-25 50 μM
Experimental: as §1, §2, §3, §4, §5, §6

[4] = target: T1, Hsc70; experiment: SNAP-25 cellulose-bound peptide array probed with Hsc70; format: binding; settings: Hsc70 with CSPαJ vs Hsc70 alone
Description: To explore in greater depth the binding sites for Hsc70 in SNAP-25, we screened a cellulose-bound peptide array spanning the full SNAP-25 sequence with 13-residue long peptides, overlapping by ten residues, and probed with Hsc70 in the presence of a two-fold excess of ATP and ten-fold excess of ADP. The binding of Hsc70 to sites in the array was then visualized with an anti-Hsc70 primary antibody and a horse radish peroxidase-tagged secondary antibody to enable visualization by chemiluminescence (Fig. 4A). To quantitatively analyze the array, we used ImageJ (https://imagej.net/ij/) and plotted the intensity under the area for each spot. […] One site is located in the SNN, one in the LOOP, and one in the LOOP-SNC region (called SNC site) (Fig. 4A) […] (Fig. 1C). […] The binding site in the LOOP region is very close to the cysteine residues that become palmitoylated as SNAP-25 moves to its membrane-localized state. It is formally possible that Hsc70 binds to SNAP-25 in the initial un-palmitoylated state and dissociates upon palmitoylation and association with the plasma membrane. […]
B, quantification of the spots from Figure 4A using ImageJ (Hsc70 (gray) and Hsc70-CSPαJ (dark gray)). […]
A peptide array of SNAP-25 was obtained from CEM corporation. […] The chemiluminescence was captured in a G-box (Syngene), and the images were analyzed using ImageJ.

[5] = OD600 (Fig. S2A), Hsc70 5 μM, CSPa-J 5 μM, Apg2 0.5 μM

B1: Apg2: nucleotide exchange factor, member of the Hsp110 family (protein, UniProt P34932 1-840, looked up)
Heat shock 70 kDa protein 4: MSVVGIDLGFQSCYVAVARAGGIETIANEYSDRCTPACISFGPKNRSIGAAAKSQVISNAKNTVQGFKRFHGRAFSDPFVEAEKSNLAYDIVQLPTGLTGIKVTYMEEERNFTTEQVTAMLLSKLKETAESVLKKPVVDCVVSVPCFYTDAERRSVMDATQIAGLNCLRLMNETTAVALAYGIYKQDLPALEEKPRNVVFVDMGHSAYQVSVCAFNRGKLKVLATAFDTTLGGRKFDEVLVNHFCEEFGKKYKLDIKSKIRALLRLSQECEKLKKLMSANASDLPLSIECFMNDVDVSGTMNRGKFLEMCNDLLARVEPPLRSVLEQTKLKKEDIYAVEIVGGATRIPAVKEKISKFFGKELSTTLNADEAVTRGCALQCAILSPAFKVREFSITDVVPYPISLRWNSPAEEGSSDCEVFSKNHAAPFSKVLTFYRKEPFTLEAYYSSPQDLPYPDPAIAQFSVQKVTPQSDGSSSKVKVKVRVNVHGIFSVSSASLVEVHKSEENEEPMETDQNAKEEEKMQVDQEEPHVEEQQQQTPAENKAESEEMETSQAGSKDKKMDQPPQAKKAKVKTSTVDLPIENQLLWQIDREMLNLYIENEGKMIMQDKLEKERNDAKNAVEEYVYEMRDKLSGEYEKFVSEDDRNSFTLKLEDTENWLYEDGEDQPKQVYVDKLAELKNLGQPIKIRFQESEERPKLFEELGKQIQQYMKIISSFKNKEDQYDHLDAADMTKVEKSTNEAMEWMNNKLNLQNKQSLTMDPVVKSKEIEAKIKELTSTCSPIISKPKPKVEPPKEEQKNAEQNGPVDGQGDNPGPQAAEQGTDTAVPSDSDKKLPEMDID
- effect of Apg2 on Hsc70 ATPase activity ([1]; Hsc70 2 μM with CSPαJ, with Apg2 (Fig. S2C)): not further increased
- ATPase activity of co-chaperone alone [1]: no ATPase activity
- aggregation of the chaperone alone [2, 5]: exhibit no aggregation
- effect of Apg2 alone on SNAP-25 aggregation ([3]; Apg2 without Hsc70/CSPαJ, 37 °C (Fig. S2B)): no significant effect
- effect of Apg2 on SNAP-25 aggregation kinetics with Hsc70-CSPαJ ([3]; Hsc70 5 μM, CSPαJ 5 μM, Apg2 0.5 μM, 37 °C (Fig. S2A)): further elongated

B2: CSPαJ: J-domain (residues 1–100) of human CSPα (protein, UniProt Q9H3Z4 1-100, looked up, fragment)
chain: MADQRQRSLSTSGESLYHVLGLDKNATSDDIKKSYRKLALKYHPDKNPDNPEAADKFKEINNAHAILTDATKRNIYDKYGSLGLYVAEQFGEENVNTYFV
modifications: J-domain
notes: J-domain (residues 1–100) of human CSPα
- effect of CSPαJ on specificity of Hsc70 binding to SNAP-25 array [4]: does not change the specificity of Hsc70 binding to SNAP-25
- stimulation of Hsc70 ATPase activity by CSPαJ ([1]; Hsc70 2 μM, with and without peptides): ~4 fold
- ATPase activity of co-chaperone alone [1]: no ATPase activity
- aggregation of the chaperone alone ([2]; OD 360 nm (Fig. 2)): no aggregation
- aggregation of the chaperone alone [2, 5]: exhibit no aggregation
- effect of CSPαJ on lag time of SNAP-25 aggregation with Hsc70 ([3]; Hsc70 and CSPαJ 5 μM each, 37 °C, OD 360 nm): elongates the lag time of SNAP-25 aggregation
